Laboratory results taken from patent US20130172246A1, “INSULIN GLARGINE VERSUS METFORMIN FOR THE FIRST-LINE TREATMENT OF EARLY TYPE-2 DIABETES” (priority 2011, published 2013).
Read-outs that look alike come from different tables or passages of the source.

How the values were obtained:
type 2 diabetes patients [1] = settings: background statement; cited from earlier work
type 2 diabetes patients [2] = experiment: Hypoglycemic events and low interstitial glucose periods during CGM; assay type: in vivo, human; settings: early treatment with GLA vs. MET
Description: Below is a list of the various target parameters: • Protection of the β-cells by early insulin therapy • C-Peptide (fasting and 2 h pp after TM) • Proinsulin (fasting and 2 h pp after TM) • Glycemic variability: • Glycemic load • Standard deviation (SD), • MAGE • HbA1c • Anti-inflammatory action of insulin: • Biomarkers of subclinical inflammation (fasting and 2 h pp) • hsCRP, • PAI-1, • Leukocyte count • Back-up samples for determining • MMP9 • ADMA • Adiponectin • Effect on endothelial function • Endothelial function at ball of thumb using laser Doppler (O2C) • Effect on renal function • Microalbuminuria (albumin/creatinine ratio) • Serum creatinine • Risk of hypoglycemia • Hypoglycemic intervals (time<3 mmol glucose) during CGM over 48 hours (day 2+3 after TM) • Free fatty acids […]

type 2 diabetes patients [3] = settings: ORIGIN-CGMS substudy, cited from earlier work
[4] = human, in vivo
Description: (§1) • Checking the inclusion/exclusion criteria • Physical examination • Measuring body weight, waist/hip measurement, blood pressure, pulse • Recording the change in concomitant medication and concomitant conditions • Recording AEs and SAEs • Applying the CGMS for up to 72 h, briefing and training the patient • Randomization: • Group A: Titrating insulin glargine to target level of fasting plasma glucose (5.6 mmol/l (100 mg/dl)) • Briefing and training the patients in insulin use (Depending on the organization, training measures can be implemented during the overall visit 1 a-c.) • Group B: 500 mg of metformin tid • Pregnancy test, if applicable. • Laser Doppler measurement; only at center 01 and 02
(§2) • Recording the change in concomitant medication • Recording AEs and SAEs • Physical examination • Measuring body weight, waist/hip measurement, blood pressure, pulse • Applying the CGMS for up to 72 h, briefing and training the patient • Drug accountability/compliance (registering the used-up medication) • Laser Doppler measurement, only at center 01 and 02

[5] = Body weight, BMI, abdominal and hip measurement in the clinical trial
Description: as §1, §2

type 2 diabetes patients [6] = settings: cited from earlier work
[7] = per protocol, change visit 1 to visit 8, mean (SD), unit as in Table 4

Insulin glargine
serious adverse reactions (type 2 diabetes patients [1]): without serious adverse reactions such as severe hypoglycemias
stable HbA1c level achieved (type 2 diabetes patients [1]): around 6%
number of hypoglycemic events (type 2 diabetes patients [2]): no rise in the number of hypoglycemic events
difference in the AUC TM for BG vs. standard treatment (predominantly metformin therapy) (type 2 diabetes patients [3]): 15%
difference in the AUC TM for BG vs. standard treatment (predominantly metformin therapy) (type 2 diabetes patients [3]; standard deviation 179): 127 mmol*120 min
Abdomen - change [4]: 1.1 (3.7) cm
Abdomen - visit 8 [4]: 104.3 (10.7) cm
BMI - change [4]: −0.5 (1.3) kg/m^2
BMI - visit 8 [4]: 29.9 (4.1) kg/m^2
Hip - 8th visit [4]: 108.6 (9.4) cm
Hip - change [4]: 1.6 (4.1) cm
weight gained [4]: 1.5 ± 3.8 kg

CN(C)C(=N)N=C(N)N [Metformin]
Abdomen - visit 8 ([5]; abdominal circumference, per protocol, week 36, mean (SD), unit as in Table 4): 100.5 (13.7) cm
Hip - 8th visit ([5]; hip measurement, per protocol, week 36, mean (SD), unit as in Table 4): 108.0 (11.6) cm
weight loss ([5]; over the study, vs. GLA p<0.001): 3.0 ± 4.3 kg
Abdomen - change [5, 7]: −2.0 (4.1) cm
BMI - change [5, 7]: 1.0 (1.4) kg/m^2
Hip - change [5, 7]: −1.6 (4.1) cm
BMI - visit 8 ([5]; per protocol, week 36, mean (SD), unit as in Table 4): 29.3 (5.3) kg/m^2
patients additionally receiving sulfonylureas or other combinations with oral antidiabetics (type 2 diabetes patients [6]; after one to two years, UK-PDS and DIG study): over 50%
patients with stomach complaints, disturbances in appetite and, very rarely, allergies (type 2 diabetes patients [6]; background statement): approximately 10%
cases in which not tolerated (type 2 diabetes patients [6]; reference [17]): approximately 15%
